Literature values as cited in US10195287B2, “Biologically active insulin derivatives” (Chemical & Biopharmaceutical Laboratories of Patras S.A., priority 2013, dated 2019).

Target: human receptor (Homo sapiens, UniProt P06213)
Details: compared with human insulin

| activity on the human receptor | Substance |
| --- | --- |
| approximately the same strength | Porcine insulin: animal insulin with a single amino acid variation from the human variety |
| approximately the same strength | bovine insulin: animal insulin that varies from human insulin by three amino acids |
